Reference: patent publication US20170102390A1

Tests used:
[1] = biological target: CK8/18 Ab (mouse antibody detected by the secondary anti-mouse antibody); experiment: microscopy count on SKBR3 cells; 80 uL anti-mouse IgG-biotin, 7.5 uL Mag-Strept, 0 uL Mag-anti FITC
[2] = biological target: CK8/18 Ab (mouse antibody detected by the secondary anti-mouse antibody); experiment: microscopy count on SKBR3 cells; 80 uL anti-mouse IgG-biotin, 7.5 uL Mag-Strept, 7.5 uL Mag-anti FITC

## Secondary antibody-biotin = goat anti-mouse IgG biotin (whole molecule)-Biotin
[1]
  Carrier particles per cancer cell (carrier particles per cancer cell): 133
[2]
  Carrier particles per cancer cell (carrier particles per cancer cell): 1110
